Reference: the supplement of paper PMC12764529
± gives the half width of the 95% confidence interval.

How the values were obtained:
[1] = folding stability dG unfold from trypsin proteolysis; higher = more stable
Method: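 Folding stability of de novo designed mini-proteins (<80 aa, no Cys; designed by TrROS, TrMRF, ProteinMPNN and the joint model) was measured by cDNA display proteolysis with trypsin and chymotrypsin. Each protease was used at 11 concentrations in a threefold dilution series plus a no-protease condition. K50 was inferred by Bayesian fitting of sequencing counts, and dG unfold was derived against a sequence-predicted unfolded-state K50 (Tsuboyama et al. method). Sequences shown include variable-length N-terminal GS-type padding (SAGGSAGG...) inside a display construct carrying a PA tag. Rows were kept only if the AF2 dimer inter-PAE was >15, to exclude likely homo-oligomers.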

[2] = folding stability dG unfold (combined trypsin and chymotrypsin); higher = more stable
Method in brief: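 K50 was inferred by Bayesian fitting of sequencing counts obtained after protease digestion of designed mini-proteins. Unfolding free energy was derived by comparison with a sequence-predicted unfolded-state K50 and a shared folded-state K50, for each protease or both combined. The mini-proteins were under 80 residues, had no cysteine, were carried in a PA-tagged cDNA display construct, and were kept only if AlphaFold2 dimer inter-PAE exceeded 15.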

Sequence | folding stability dG unfold [1] [kcal/mol] | folding stability dG unfold [2] [kcal/mol]
SAGGSAGGSAGEEIIRAAKEAAKAGKKVRIVVPKGMSAEEIAKKLAEELNIEKVEVYELPSAGGSAGGSAGG [r11_524_TrROS_Hall] | 0.332 ± 0.086 | -0.142 ± 0.11
SAGGSAGGKIRILEEEEDPANGERRLMVMVHNPKGKPHQYPVPLDDADEILEHLPPGMPVEIYPSAGGSAGG [r6_113_TrROS] | 0.362 ± 0.097 | -0.514 ± 0.97
SETVTIEVEIEVKLPDGSTYRVRLTVEFDKETGKITLKMTVEYNGKTYEVELSEEEIKALLDELLKKLGLSA [r9_1136_TrROS_Hall] | 4.22 ± 0.29 | > 6
SAGGSAGGSAGGMITIEEDPNKDLKTVTVYVPEKPKWVTVDVKPSETIEEALAKAEELLKSAGGSAGGSAGG [r7_138_JUSTAS] | 0.0308 ± 0.064 | -0.514 ± 0.18
SAGGSAGGSAGGNEDDNVPIGEKTVVKKVPPSSPVTITETIYRRPSTGTTSTTEKVIIESAGGSAGGSAGGS [r10_6_JUSTAS] | -1.12 ± 0.42 | < -1
SAGMTVEEVAAEIIASHPPSSTSVTLEVDVGPKPVRVTVEILPDPETGRPVPRVTVTDPNKNVTTEYVVSAG [r5_236_JUSTAS] | -0.173 ± 0.052 | -0.632 ± 0.39
SAGGSGLRVGDVVEAEGVVVPDPETRLRRAVFRFPDFVVVEVVEVPEDVAPDEEIPFPVRIDAIVPSAGGSA [r2_113_TrMRF] | -0.512 ± 0.19 | -0.645 ± 0.17
SAGGSAGGSAGGMPVTVEVKEEELPGGEKVITVTVTYPDPVVETLEVKKLPPVDPNNKPSAGGSAGGSAGGS [r10_684_JUSTAS] | 0.294 ± 0.1 | -0.103 ± 0.3
SAGGSAGGSGMISKTEVERLPDGTVIERKEYPEGGLTTLKIYKVPPDGVPTLVEEKLVPEKLISAGGSAGGS [r12_695_JUSTAS] | -0.612 ± 0.17 | -0.69 ± 0.24
SAGGSAGGSGNPDTPTSPVFVVIEKTTTVVPAPNGLYPKRTSVKISIPGGAAAGAEELIAELLSAGGSAGGS [r12_933_JUSTAS] | -0.2 ± 0.13 | < -1
SAGGSAGGSAGGYFIRYPGNGREIMIPPDDIEDFLDTLPPGFPPENVKIYPFDPNGKPISAGGSAGGSAGGS [r10_13_TrROS] | -0.242 ± 0.2 | < -1
SAGGSAGGSAGQPKIGVLKEELIKETYTRPVPDSDETVKEERIVVKIIKKKLNIPENLLLSAGGSAGGSAGG [r17_530_JUSTAS] | -0.447 ± 0.27 | < -1
SAGGSAGGSAGGMPLNFSTVETEELPELGATVTTSTAPGYILTETRTPEGVEVQRYPALLSAGGSAGGSAGG [r7_280_JUSTAS] | 0.86 ± 0.068 | 0.108 ± 0.2
SAGSSSTTIEVPVGDPAKAGSVEEYKEKLIKEGFSESDVPTATPLPDGTRLVTFKSPSTTVTLVVPLGESAG [r5_144_JUSTAS] | -0.341 ± 0.056 | -0.846 ± 0.2
SAGLTAKITSVTEENGTLTVTVEVTAPDGSTFTFTATFRIEPAPAPPVKVTVETDADGNVTVTVETLDSAGG [r19_172_TrROS_Hall] | 5.13 ± 0.28 | > 6
SAGGSAGGSAGDEKVPFFVRIIDPKNGKPVREFPVEVDPGKIKIPKELAENMPPDNVEIYSAGGSAGGSAGG [r11_725_TrROS] | -0.824 ± 0.4 | < -1
SAGGSAGGSAGSSLPPDARYTTKVTVKTPFSKTLSLSEYQKLPPSEIKGIEIEKEVVPVESAGGSAGGSAGG [r11_899_JUSTAS] | -0.198 ± 0.44 | -0.927 ± 0.92
SAGGSAGGSAGLNITYTTTITYPDGTVVTEPVVSSGSLEEAIARARELEKKHPNVEVEVSPEGSAGGSAGGS [r12_268_JUSTAS] | 0.396 ± 0.079 | -0.113 ± 0.23
SAGGSAGGSAGGTIRDAVKEGKPFKIRMRGKKGKTHTVTIRPDKPVKLPGISSIQVERDSAGGSAGGSAGGS [r10_700_TrROS] | -0.285 ± 0.27 | -0.707 ± 0.8
SAGGSAGGSAKKIDVEVDEPVPNGYYRATIRVPGPGKPIEVNVPGPWEDAERKAKELAKELSAGGSAGGSAG [r3_104_TrROS] | -0.964 ± 0.55 | < -1
SAGGSAGGSAGGNKEVEIPIMIYWPDPNGKPNMHTVEIDMPNNDLPDIKDWAEDNPWTIMSAGGSAGGSAGG [r7_539_TrROS] | 0.287 ± 0.05 | -0.532 ± 0.22
SMRLVPVPVRSADGRASVDEIRAAIREALPEGLRVDFGEEFIERALREAERRYGGRLRPDDFPILVPVLGSA [r9_197_TrMRF] | -0.209 ± 0.15 | < -1
SAGGSAGGSSMPVKVTRTPVPSSAPPSTEFLETVTYPDGTVTTYRFRRDDGSVTSVRVSTSPASAGGSAGGS [r12_1049_JUSTAS] | -0.535 ± 0.71 | < -1
